From US20220009993A1

Molecular target: CD19 on CD19+ cells (Nalm6 and Namalwa) (human) (UniProt P15391)
Assay: cell-based or functional assay

Chain of UniProt P15391 (P15391 20-556): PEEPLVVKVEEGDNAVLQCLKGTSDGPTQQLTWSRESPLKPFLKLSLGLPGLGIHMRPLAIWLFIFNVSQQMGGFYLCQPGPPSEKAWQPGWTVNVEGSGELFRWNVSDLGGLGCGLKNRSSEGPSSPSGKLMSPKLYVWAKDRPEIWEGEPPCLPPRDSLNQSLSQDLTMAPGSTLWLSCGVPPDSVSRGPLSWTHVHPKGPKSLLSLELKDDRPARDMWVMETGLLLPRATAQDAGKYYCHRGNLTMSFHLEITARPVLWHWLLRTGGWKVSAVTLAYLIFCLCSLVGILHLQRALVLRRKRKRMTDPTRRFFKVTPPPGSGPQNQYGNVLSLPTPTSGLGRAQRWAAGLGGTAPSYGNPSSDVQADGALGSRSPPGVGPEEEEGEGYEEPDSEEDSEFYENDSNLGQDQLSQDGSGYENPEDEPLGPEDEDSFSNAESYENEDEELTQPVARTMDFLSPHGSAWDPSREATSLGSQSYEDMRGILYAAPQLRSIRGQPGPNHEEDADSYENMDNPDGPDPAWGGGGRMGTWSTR

In the case of “ARI, a second-generation anti-CD19 CAR, expressed on primary T cells from the AWARI lentiviral vector (AW promoter, SEQ ID NO 1)”, the specific lysis of CD19+ cells (Nalm6, Namalwa) after 48 h co-culture, relative to non-transduced T cells was 70 to 80%.
